# T1: Synthetic peptide S3 conjugated to a penetratin peptide
# T1 chain: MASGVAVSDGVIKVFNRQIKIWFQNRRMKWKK
# B1: purified LIMK1 (protein)
# chain: GSSARQKPVLRSCSIDRSPGAGSLGSPASQRKDLGRSESLRVVCRPHRIFRPSDLIHGEVLGKGCFGQAIKVTHRETGEVMVMKELIRFDEETQRTFLKEVKVMRCLEHPNVLKFIGVLYKDKRLNFITEYIKGGTLRGIIKSMDSQYPWSQRVSFAKDIASGMAYLHSMNIIHRDLNSHNCLVRENKNVVVADFGLARLMVDEKTQPEGLRSLKKPDRKKRYTVVGNPYWMAPEMINGRSYDEKVDVFSFGIVLCEIIGRVNADPDYLPRTMDFGLNVRGFLDRYCPPNCPPSFFPITVRCCDLDPEKRPSFVKLEHWLETLRMHLAGHLPLGPQLEQLDRGFWETYRRGESG
# Key:
# [1] = target: GST-tagged recombinant human cofilin
# Chain of GST-tagged recombinant human cofilin (chain, as listed by the source): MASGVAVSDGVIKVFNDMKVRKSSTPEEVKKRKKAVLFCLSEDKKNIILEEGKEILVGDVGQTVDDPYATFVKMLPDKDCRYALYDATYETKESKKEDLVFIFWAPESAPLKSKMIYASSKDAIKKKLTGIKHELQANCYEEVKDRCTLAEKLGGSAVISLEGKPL
# [2] = target: T1, Synthetic peptide S3 conjugated to a …
protein,measurement,setting,value
B1,cofilin phosphorylation in the in vitro LIMK1 kinase assay (western blot for phospho-cofilin ser3),[1],the phosphorylation of cofilin by LIMK1
same,cofilin phosphorylation in the in vitro LIMK1 kinase assay (western blot for phospho-cofilin ser3),[2],S3 inhibited cofilin phosphorylation by LIMK1
